Patent publication US20140274782A1, “AFFINITY REAGENTS AND METHODS FOR DETECTION, PURIFICATION, AND PROTEOMIC ANALYSIS OF METHYLATED PROTEINS” (The Board of Trustees of the Leland Stanford Junior …, priority 2013, published 2014)

Legend:
G9a and GLP = target: T1, G9a and GLP (Homo sapiens, UniProt Q96KQ7+Q9H9B1); assay: Triple SILAC pull-down after UNC0638 treatment of 293T cells, DMSO/UNC0638 ratio of protein captured by 3×MBT; format: cell-based; set-up: cells were treated for 24 hours with UNC0638 at 2.5 μM or DMSO vehicle control; endogenous in cells; host or cells: HEK 293T; conditions: for Relative to UNC0638 UNC Heavy / Relative to UNC0638 UNC Light: SILAC ratio DMSO/UNC0638 of protein pulled down with 3xMBT; for Relative to UNC0638 UNC Heavy: UNC0638 in heavy SILAC media; for Relative to UNC0638 UNC Light: UNC0638 in light SILAC media; for Relative to UNC0638 Average: average of UNC Light and UNC Heavy experiments;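 on all read-outs here: mass spectrometry (Q-Exactive) SILAC quantitation, DMSO/UNC0638 ratio computed after subtracting 3×MBTD355N mutant pull-down background, only proteins with at least twofold 3×MBT over mutant signal considered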
T1 sequence (Q96KQ7 2-1210 limits assumed): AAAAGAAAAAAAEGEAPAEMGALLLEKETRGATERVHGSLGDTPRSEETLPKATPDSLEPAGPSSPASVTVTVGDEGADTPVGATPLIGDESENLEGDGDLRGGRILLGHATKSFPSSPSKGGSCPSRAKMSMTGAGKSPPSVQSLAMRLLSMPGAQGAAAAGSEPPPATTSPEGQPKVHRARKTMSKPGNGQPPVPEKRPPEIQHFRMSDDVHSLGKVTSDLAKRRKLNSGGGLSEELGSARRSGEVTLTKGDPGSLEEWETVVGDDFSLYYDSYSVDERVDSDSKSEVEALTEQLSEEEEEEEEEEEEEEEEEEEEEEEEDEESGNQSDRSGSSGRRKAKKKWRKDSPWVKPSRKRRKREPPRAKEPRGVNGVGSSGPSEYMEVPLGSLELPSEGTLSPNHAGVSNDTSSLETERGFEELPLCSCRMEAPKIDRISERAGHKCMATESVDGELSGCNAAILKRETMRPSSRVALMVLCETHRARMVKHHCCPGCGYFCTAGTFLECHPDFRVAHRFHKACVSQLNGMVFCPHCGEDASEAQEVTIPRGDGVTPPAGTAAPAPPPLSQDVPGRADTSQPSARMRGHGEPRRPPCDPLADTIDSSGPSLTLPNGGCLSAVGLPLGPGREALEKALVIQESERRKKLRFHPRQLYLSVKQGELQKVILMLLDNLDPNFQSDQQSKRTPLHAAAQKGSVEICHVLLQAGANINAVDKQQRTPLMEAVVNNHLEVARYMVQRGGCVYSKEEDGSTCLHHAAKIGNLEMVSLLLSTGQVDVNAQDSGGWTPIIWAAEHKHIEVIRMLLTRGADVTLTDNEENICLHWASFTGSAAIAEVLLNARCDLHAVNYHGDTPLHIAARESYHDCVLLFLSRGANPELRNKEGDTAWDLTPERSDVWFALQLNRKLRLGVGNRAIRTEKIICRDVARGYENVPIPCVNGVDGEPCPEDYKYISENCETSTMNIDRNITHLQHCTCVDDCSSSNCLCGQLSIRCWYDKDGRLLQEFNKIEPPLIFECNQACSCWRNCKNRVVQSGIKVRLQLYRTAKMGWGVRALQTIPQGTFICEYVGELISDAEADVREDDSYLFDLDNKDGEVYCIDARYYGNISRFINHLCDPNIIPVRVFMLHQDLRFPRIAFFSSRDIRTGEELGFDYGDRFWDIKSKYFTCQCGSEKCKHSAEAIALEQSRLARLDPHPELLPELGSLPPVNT
T1 sequence (Q9H9B1 2-1298 limits assumed): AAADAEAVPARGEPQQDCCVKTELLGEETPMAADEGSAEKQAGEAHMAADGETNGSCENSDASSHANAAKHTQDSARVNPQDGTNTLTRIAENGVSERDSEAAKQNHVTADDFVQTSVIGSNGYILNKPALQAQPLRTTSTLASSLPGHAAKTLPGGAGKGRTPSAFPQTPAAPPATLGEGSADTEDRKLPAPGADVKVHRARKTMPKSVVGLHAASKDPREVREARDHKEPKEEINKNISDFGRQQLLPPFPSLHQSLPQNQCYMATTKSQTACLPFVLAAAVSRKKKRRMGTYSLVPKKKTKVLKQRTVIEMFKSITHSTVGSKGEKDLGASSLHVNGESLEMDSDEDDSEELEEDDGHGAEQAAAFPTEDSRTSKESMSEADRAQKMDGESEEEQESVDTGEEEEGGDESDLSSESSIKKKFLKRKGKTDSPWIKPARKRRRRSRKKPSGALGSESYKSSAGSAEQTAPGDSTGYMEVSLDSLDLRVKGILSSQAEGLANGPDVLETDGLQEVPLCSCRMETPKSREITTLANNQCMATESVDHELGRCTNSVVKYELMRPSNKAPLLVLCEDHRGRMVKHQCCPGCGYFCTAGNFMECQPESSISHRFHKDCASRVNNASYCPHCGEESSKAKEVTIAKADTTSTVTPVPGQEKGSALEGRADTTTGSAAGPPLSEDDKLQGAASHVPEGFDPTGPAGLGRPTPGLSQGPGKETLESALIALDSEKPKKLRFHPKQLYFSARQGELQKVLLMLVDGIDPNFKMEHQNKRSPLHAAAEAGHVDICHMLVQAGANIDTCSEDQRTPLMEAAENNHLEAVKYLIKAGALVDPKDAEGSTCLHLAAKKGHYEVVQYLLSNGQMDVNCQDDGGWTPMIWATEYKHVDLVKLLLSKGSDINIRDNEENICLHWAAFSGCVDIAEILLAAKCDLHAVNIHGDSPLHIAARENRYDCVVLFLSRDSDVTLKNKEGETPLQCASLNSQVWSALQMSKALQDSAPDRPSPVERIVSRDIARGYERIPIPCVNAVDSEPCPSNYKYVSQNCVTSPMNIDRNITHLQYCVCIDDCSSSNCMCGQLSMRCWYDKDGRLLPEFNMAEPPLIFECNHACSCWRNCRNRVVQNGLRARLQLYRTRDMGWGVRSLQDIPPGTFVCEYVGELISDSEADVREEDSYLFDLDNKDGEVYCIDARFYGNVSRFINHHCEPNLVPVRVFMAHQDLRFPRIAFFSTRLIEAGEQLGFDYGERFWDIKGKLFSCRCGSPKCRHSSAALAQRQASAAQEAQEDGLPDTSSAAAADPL

3×MBT domain of L3MBTL1 = assay: Triple SILAC pull-down, 3xMBT/3xMBTD355N ratio (cytoplasmic, nuclear and chromatin fractions of 293T cells); format: binding, human; conditions: SILAC ratio, pull-down 3xMBT vs 3xMBTD355N; for 3xMBT/D355N UNC Heavy: experiment with UNC0638 in heavy SILAC media; for 3xMBT/D355N UNC Light: experiment with UNC0638 in light SILAC media;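 on all read-outs here: proteins quantified with MaxQuant, requiring at least two unique peptides and quantification in both label directions, normalized to the mean of proteins from a digested loading control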

Row | Relative to UNC0638 UNC Heavy (G9a and GLP) [log base 2] | Relative to UNC0638 UNC Light (G9a and GLP) [log base 2] | Relative to UNC0638 Average (G9a and GLP) [log base 2] | Molecule | 3xMBT/D355N UNC Heavy (3×MBT domain of L3MBTL1) [log base 2] | 3xMBT/D355N UNC Light (3×MBT domain of L3MBTL1) [log base 2]
1 | 0.60 | −0.11 | 0.24 | SEC24A (protein, UniProt O95486 1-1093, looked up) Protein transport protein …: MSQPGIPASGGAPASLQAQNGAALASGSPYTNGPVQNALLSSQESVSQGYNFQLPGSYPHPIPAKTLNPVSGQSNYGGSQGSGQTLNRPPVASNPVTPSLHSGPAPRMPLPASQNPATTPMPSSSFLPEANLPPPLNWQYNYPSTASQTNHCPRASSQPTVSGNTSLTTNHQYVSSGYPSLQNSFIKSGPSVPPLVNPPLPTTFQPGAPHGPPPAGGPPPVRALTPLTSSYRDVPQPLFNSAVNQEGITSNTNNGSMVVHSSYDEIEGGGLLATPQLTNKNPKMSRSVGYSYPSLPPGYQNTTPPGATGVPPSSLNYPSGPQAFTQTPLGANHLTTSMSGLSLQPEGLRVVNLLQERNMLPSTPLKPPVPNLHEDIQKLNCNPELFRCTLTSIPQTQALLNKAKLPLGLLLHPFKDLVQLPVVTSSTIVRCRSCRTYINPFVSFLDQRRWKCNLCYRVNDVPEEFLYNPLTRVYGEPHRRPEVQNATIEFMAPSEYMLRPPQPPVYLFVFDVSHNAVETGYLNSVCQSLLDNLDLLPGNTRTKIGFITFDSTIHFYGLQESLSQPQMLIVSDIEDVFIPMPENLLVNLNESKELVQDLLKTLPQMFTKTLETQSALGPALQAAFKLMSPTGGRMSVFQTQLPTLGVGALKPREEPNHRSSAKDIHMTPSTDFYKKLALDCSGQQVAVDLFLLSGQYSDLASLGCISRYSAGSVYYYPSYHHQHNPVQVQKLQKELQRYLTRKIGFEAVMRIRCTKGLSIHTFHGNFFVRSTDLLSLPNVNPDAGYAVQMSVEESLTDTQLVSFQSALLYTSSKGERRIRVHTLCLPVVSTLNDVFLGADVQAISGLLANMAVDRSMTASLSDARDALVNAVIDSLSAYRSSVLSNQQPGLMVPFSLRLFPLFVLALLKQKSFQTGTNARLDERIFAMCQVKNQPLVYLMLTTHPSLYRVDNLSDEGALNISDRTIPQPPILQLSVEKLSRDGAFLMDAGSVLMLWVGKNCTQNFLSQVLGVQNYASIPQPMTDLPELDTPESARIIAFISWLREQRPFFPILYVIRDESPMKANFLQNMIEDRTESALSYYEFLLHIQQQVNK | 1.94 | 2.29
2 | 0.27 | 0.23 | 0.25 | PRDX6 (protein, UniProt P30041 2-224, looked up) Peroxiredoxin-6: PGGLLLGDVAPNFEANTTVGRIRFHDFLGDSWGILFSHPRDFTPVCTTELGRAAKLAPEFAKRNVKLIALSIDSVEDHLAWSKDINAYNCEEPTEKLPFPIIDDRNRELAILLGMLDPAEKDEKGMPVTARVVFVFGPDKKLKLSILYPATTGRNFDEILRVVISLQLTAEKRVATPVDWKDGDSVMVLPTIPEEEAKKLFPKGVFTKELPSGKKYLRYTPQP | 2.01 | 2.00

The remaining lines, values behind:

Row | Molecule | Relative to UNC0638 UNC Heavy (G9a and GLP) [log base 2] | Relative to UNC0638 UNC Light (G9a and GLP) [log base 2] | Relative to UNC0638 Average (G9a and GLP) [log base 2] | 3xMBT/D355N UNC Heavy (3×MBT domain of L3MBTL1) [log base 2] | 3xMBT/D355N UNC Light (3×MBT domain of L3MBTL1) [log base 2]
3 | U2SURP (protein, UniProt O15042 2-1029, looked up) U2 snRNP-associated SURP …: ADKTPGGSQKASSKTRSSDVHSSGSSDAHMDASGPSDSDMPSRTRPKSPRKHNYRNESARESLCDSPHQNLSRPLLENKLKAFSIGKMSTAKRTLSKKEQEELKKKEDEKAAAEIYEEFLAAFEGSDGNKVKTFVRGGVVNAAKEEHETDEKRGKIYKPSSRFADQKNPPNQSSNERPPSLLVIETKKPPLKKGEKEKKKSNLELFKEELKQIQEERDERHKTKGRLSRFEPPQSDSDGQRRSMDAPSRRNRSSGVLDDYAPGSHDVGDPSTTNLYLGNINPQMNEEMLCQEFGRFGPLASVKIMWPRTDEERARERNCGFVAFMNRRDAERALKNLNGKMIMSFEMKLGWGKAVPIPPHPIYIPPSMMEHTLPPPPSGLPFNAQPRERLKNPNAPMLPPPKNKEDFEKTLSQAIVKVVIPTERNLLALIHRMIEFVVREGPMFEAMIMNREINNPMFRFLFENQTPAHVYYRWKLYSILQGDSPTKWRTEDFRMFKNGSFWRPPPLNPYLHGMSEEQETEAFVEEPSKKGALKEEQRDKLEEILRGLTPRKNDIGDAMVFCLNNAEAAEEIVDCITESLSILKTPLPKKIARLYLVSDVLYNSSAKVANASYYRKFFETKLCQIFSDLNATYRTIQGHLQSENFKQRVMTCFRAWEDWAIYPEPFLIKLQNIFLGLVNIIEEKETEDVPDDLDGAPIEEELDGAPLEDVDGIPIDATPIDDLDGVPIKSLDDDLDGVPLDATEDSKKNEPIFKVAPSKWEAVDESELEAQAVTTSKWELFDQHEESEEEENQNQEEESEDEEDTQSSKSEEHHLYSNPIKEEMTESKFSKYSEMSEEKRAKLREIELKVMKFQDELESGKRPKKPGQSFQEQVEHYRDKLLQREKEKELERERERDKKDKEKLESRSKDKKEKDECTPTRKERKRRHSTSPSPSRSSSGRRVKSPSPKSERSERSERSHKESSRSRSSHKDSPRDVSKKAKRSPSGSRTPKRSRRSRSRSPKKSGKKSRSQSRSPHRSHKKSKKNKH | 0.23 | 0.27 | 0.25 | 3.19 | 2.58
4 | CACYBP (protein, UniProt Q9HB71 2-228, looked up) Calcyclin-binding protein: ASEELQKDLEEVKVLLEKATRKRVRDALTAEKSKIETEIKNKMQQKSQKKAELLDNEKPAAVVAPITTGYTVKISNYGWDQSDKFVKIYITLTGVHQVPTENVQVHFTERSFDLLVKNLNGKSYSMIVNNLLKPISVEGSSKKVKTDTVLILCRKKVENTRWDYLTQVEKECKEKEKPSYDTETDPSEGLMNVLKKIYEDGDDDMKRTINKAWVESREKQAKGDTEF | 0.29 | 0.20 | 0.25 | 1.46 | 1.48
